{"source": "patent US20070196377A1", "about": "(Daiichi Sankyo, published 2007)", "binders": {"B1": {"name": "proto-Db1 DH/PH (C-terminal FLAG-tagged protein) (other)", "chain": "MAVLKNHVLNELIQTERVYVRELYTVLLGYRAEMDNPEMFDLMPPLLRNKKDILFGNMAEIYEFHNDIFLSSLENCAHAPERVGPCFLERKDDFQMYAKYCQNKPRSETIWRKYSECAFFQECQRKLKHRLRLDSYLLKPVQRITKYQLLLKELLKYSKDCEGSALLKKALDAMLDLLKSVNDSMHQIAINGYIGNLNELGKMIMQGGFSVWIGHKKGATKMKDLARFKPMQRHLFLYEKAIVFCKRRVESGEGSDRYPSYSFKHCWKMDEVGITEYVKGDNRKFEIWYGEKEEVYIVQASNVDVKMTWLKEIRNILLKQ", "notes": "Positive control; also called DH/PH domain of proto Db1; deletion mutant of proto-Db1; not shown: C-terminal FLAG tag of vector pFLAG-CMV5a"}}, "molecular_target": "Rac1 expressed as an N-terminal GST-fusion protein (Bos taurus (Bovine), UniProt P62998 1-189)", "assay": "GST pull-down, anti-FLAG Western blot", "method": "Each cell lysate was subjected to a pull-down assay for detecting the binding of the hj03796 DH/PH, or the proto-Db1 DH/PH, to a Rho family protein. 300 μL of each cell lysate, 20 μL of Glutathione Sepharose 4B in the lysis buffer, and 100 μL of the lysis buffer were mixed. Each sample was prepared in such a way that the final concentration of MgCl₂ and dithiothreitol (DTT) was 1 mM. After reacting at 4° C. for 1 hour with rotating by rotator, each sample washed three times with 1 mL of cold lysis buffer (the final concentration of MgCl₂ was 1 mM) by centrifigation at 1,000 rpm for 15 seconds at 4° C. After washing and removing the supernatant, the Glutathione Sepharose 4B was added with 40 μL of a solution that was prepared by mixing SDS-PAGE sample buffer (the same composition as in Example 2) with an equal volume of the lysis buffer. After that, it was mixed with a mixer and subjected to a heat treatment at 100° C. for 5 minutes, to prepare a sample for electrophoresis. SDS-polyacrylamide gel electrophoresis was carried out, and then the gel was equilibrated for 5 minutes or more in a blotting buffer (the same composition as in Example 2). The proteins were transferred onto a PVDF membrane. After blotting, the PVDF membrane was subjected to blocking at 4° C. overnight, in TBS-T+BA (the same composition as in Example 2). […]", "data": [{"binder": "B1", "values": [{"measurement": "binding result", "result": "no binding"}]}]}
